Results: patent publication US20260008822A1 (RECOURSE BIOLOGICS, published 2026)

Biological target: T1, E0 (EGFR-OMCP bispecific fusion protein: cetuximab scFv - (GGGGS)3 linker - OMCP - His8 tag)
T1 construct: also called OMCP-EGFR; OMCP-EGFR scFv
Assay: SPR (ProteOn XPR36), human NKG2D amine-coupled to the chip, bispecific as analyte, 1:1 Langmuir fit

B1: human NKG2D (receptor, UniProt P26718 78-216, looked up)
chain: FLNSLFNQEVQIPLTESYCGPCPKNWICYKNNCYQFFDESKNWYESQASCMSQNASLLKVYSKEDQDLLKLVKSYHWMGLVHIPTNGSWQWEDGSILSPNLLTIIEMQKGDCALYASSFKGYIENCSTPNTYICMQRTV
Q: B1 was tested. Which Kd did it give?
A: Its Kd is 0.17 nM.
